Experiment: soluble on expression in E. coli; label from the status in PepcDB or PDB records

Question: With “STGMRPRGAAFAAGPPGDLHLGTAIGFAGAIWRSRSPAMSTLLDIKSSVLRQVQVCPSFRRRTEQDPGSASADPQEPATGAWKPGDGVEFFAHMRLMLKKGEGRQGLPCLEVPLRSGSPAPPEPVDPSLGLRALAPEEVEMLYEEALYTVLYRAGTMGPDQVDDEEALLSYLQQVFGTSLEEHTEAIERVRKAKAPTYALKVSVMRAKNLLAKDPNGFSDPYCMLGILPASDATREPRAQKEQRFGFRKGSKRGGPLPAKCIQVTEVKSSTLNPVWKEHFLFEIEDVSTDQLHLDIWDHDDDVSLVEACRKLNEVIGLKGMGRYFKQIVKSARANGTAGPTEDHTDDFLGCLNIPVREVPVAGVDRWFKLEPRSSASRVQGHCHLVLKLITTQRDTAMSQRGRSGFLSHLLLLSHLLRLEHSAEEPNSSSWRGELSTPAATILCLHGAQSNLSPLQLAVLHWQVSSRHHQTCTLDYSYLLGLLEDMQAHWEEAPSLPQEQEESLADSLSAFSEFGLQLLRQLRDYFPATNSTAVHRLELLLKCLGKLQLFQPSFEICPFESELNMDIAAALKRGNREWYDRILNDKSPREQPGPQRLPGLVVLADAVYDDLQFCYSVYASLFHSILNVDVFTLTFRQLERLVAEEAWVLTEELSPKMTLEVASGLFELYLTLADLQRFWDSIPGRDSRSLALAGIHAPFLPAVKLWFQVLRDQAKWRLQGAVDMDTLEPVDASSRHSSSAATAGLCLSHIQELWVRLAWPDPAQAQGLGTQLGQDVCEATLFYTELLRKKVDTQPGAAGEAVSEALCVVLNNVELVRKAAGQALKGLAWPEGATGPEGVLPRPLLSCTQALDDDLQREAHTVTAHLTSKMVGDIRKYVQHISLSPDSIQNDEAVAPLMKYLDEKLALLNASLVKGNLSRVLEALWELLLQAILQALGANRDVSADFYSRFHFTLEALVSFFHAEGQGLPLESLRDGSYKRLKEELRLHKCSTRECIEQFYLDKLKQRTLEQNRFGRLSVRCHYEAAEQRLAVEVLHAADLLPLDANGLSDPFVIVELGPPHLFPLVRSQRTQVKTRTLHPVYDELFYFSVPAEACRRRAACVLFTVMDHDWLSTNDFAGEAALGLGGVTGVARPQVGGGARAGQPVTLHLCRPRAQVRSALRRLEGRTSKEAQEFVKKLKELEKCMEADP” as the sequence, how does the “soluble on expression in E. coli” value read?
Answer: The value was “soluble”.

Question: Which “soluble on expression in E. coli” value does the source give for “MNQRILSTLGFDKVKQQLLQFIVTAQGTNEVSELLPIADENKIQSWLNETQDGLKVQRLRGGIPIPKLENIQPHMKRIEIGADLNGIELAQVGRVLSTTSELTRFFDELSENEVDLEHHHHHH” here?
Answer: The value was “not soluble”.

Question: For “MNLVGIVGTNSERSTNRKLLRFMAEHFAPQAAIEVLEIKDLPAFDEPENKTAPAAVTAFSKKIAAADGVIIATPEYNHTIPAPLGSALEWIAYTSRVLVNKPVMIVGCSLGALGTSRAQAHLRQILDAPELKARVMPGTEFFLGHSEHVLDDDFNLNNPEKVAELEEHFTEFQDFVIVTNQIVKQADTDRKKAFVWEAGELEHHHHHH”, which “soluble on expression in E. coli” value is on record?
Answer: Its value is “soluble”.

Question: With “MGSDKIHHHHHHMKWNSNLYDHKHSFVAEYGKSMINFVNVGKDQKILDLGCGTGVLTNELAKNGATVIGTDLSKNMIDKAKTNYPNLIFQVKDATNLSFKNEFDTVFSNAVFHWISNQEKLLHSIYTCLKDNGTLICEFGAQNNISQIQTAFEKVIEQKGYSYCSPFFFPSKEEYKLLLDQAGFEVKHIIEYDRPTPLADGEKGLRNWICQFFASDLLEFSDEQKEQILFETEKLCKNSIWKNNQWVADYRRIQIIAVKNKNNGTK” as the sequence, how does the “soluble on expression in E. coli” value read?
Answer: The value was “not soluble”.

Question: Which “soluble on expression in E. coli” value does the source give for “MSLDKMKAITFFDLDGTLLDGTSQITPEITAAVAALKDNQILPLIATGRTLCEIQPIMKASGIDSAIVMNGQFIHYEGKTIYSDEFTTEECVSLHEHVKQRGHELAFYNERRIFCTGHTGTVKQAYDYIHSAVPEIDPTGYENDAVNMMLVLSQHGDDDEYYYERFPELTFYRNGPFSIDIVRKGVSKGSGVKNLFNTLGLNGIPTYAFGDGINDLALFEACDYGIAMGNAREELKEKATFISTKNTENGIVNGLKKFDLLEGHHHHHH” here?
Answer: The value was “soluble”.

Question: With “MGSDKIHHHHHHMLKLSVCLLTCNSARLLMEVLPPLLKVADECIVVDSGSTDETVAICQQFGLTVHHHAYKAHGAQMNYAIGLASHDWVLCMDSDEILDNDVVAAIQALKAGEEPEPTCAWRLPRYWFVLGKQVRTIYPISSPDYPVRLFNRQQARFNDRPVDDQVVGHASSVRLPGFVRHDTFYSLHEVFNKLNSYTTRLVKYQQIKPSLTRGIVSAIGAFFKWYLFSGAWRYGKVGVVTGLYATFYSFLKYFKAWYAHEDNQAPVAQKRTDP” as the sequence, how does the “soluble on expression in E. coli” value read?
Answer: Its value is “not soluble”.

Question: For “MGHHHHHHSHMAAPGLRLGAGRLFEMPAVLERLSRYNSTSQAFAEVLRLPKQQLRKLLYPLQEVERFLAPYGRQDLHLRIFDPSPEDIARADNIFTATERNRIDYVSSAVRIDHAPDLPRPELEENIFISG”, which “soluble on expression in E. coli” value is on record?
Answer: Its value is “not soluble”.

Question: Which “soluble on expression in E. coli” value does the source give for “MSLSIASADRWSDPMPTTATTFEEFRQRVDYSLLQALKPDPEATSDGNDHRPRPVFSGHWVPVRPTPIPEPKYVAHSFILFAELGISDDLAHNSDFTRLFSGDASVAAEPMHSWGWATGYALSIYGTEYIQQCPFGTGNGYGDGRAMSIVEGVFEGQRWEMQLKGGGPTPYCRGADGRAVLRSSVREFLAQEFMHALGVPTSRSLTLYRSEAETVRRPWYSDHSRSFDPDVMVDNQAAISTRVAPSFLRVGQIELFARRARDNAHPNAHDELRLIVQHLIDRNYRAEIDATLPFHQQVLELARLFRGRLTALVANWMRVGYCQGNFNSDNCAAGGYTLDYGPFGFCELFDPRFQPWTGGGAHFSFFNQPAAAEANYRMFWRSLRTLLEGDDAAQRELDQLNEGFAVAMQQQLEAMWASKLALPAYDETLVTELLQLLVAAKADYTKAFRLLSTIPDHVAELHPSFYLPSSEDLDQRWQTWLQRWRERITANGDLEETSAAMRRVNPAITWREWLIAPAYQQAEQGDNSLVLELQTLFSSPYSAPSTELAARYDQLRPQQFFSAGGIAHYSCSSEGHHHHHH” here?
Answer: The value was “not soluble”.

Question: Which “soluble on expression in E. coli” value does the source give for “MKMKLTAAIIAAFVIIMGCAGGPKASKADELDLAIRDTSDYLNDNIPKGNKIIILNIQSDYASLSDYIIDELIANAVNDKIFKVVDRAQLEQIRAELNFQWSGEVDDKSALEIGKFLGAQTIVTGAISQLADRHRMRIRALNVKTAEVQGQYNRNITTSPMITALMKGGKSTNTSYGGKTRSGNSSGTTGGTSGAKTSQPATPEYKIGDTGPAGGLIFYDKKNNRNGWRYLEAAPANTERETFMSGDSPYSLGNKNLVGDGFENTQNMMKSIEKKGGGIGSAPYYCTNLVVNGFNDWYLPSFDEISLMYTNLHANNLGSFKQRDYWHSSEHGVVWGTYSFAKGEKGQHSYAYDNDKRLTRACRRF” here?
Answer: The value was “not soluble”.

Question: For “MGSDKIHHHHHHMTKIKHIFSDLDGTLLDDQGKISKKTQEVIENSNLPFSLVSARAPQAMESLINQLNLKSSQVAFNGGLIFAKNEVIKANPMVHASAQELIKTIKKDYPEINLSLYSLSDWYVEKIDKDIEQEMQFTPQVPKLVDLETLITERPRLEIFKILLITPNESKLEEIKKHLEKLNFPDIIIQKTWETYLEITHLEAQKAKAVQFIAQREQLEQSELAAFGDNENDLSMLKAVGLPIVMANASDDLKKIGKVITKSNTEDGVAYGIQKYITDSLF”, which “soluble on expression in E. coli” value is on record?
Answer: The value was “not soluble”.

Question: For “MAGAAAAVAAGAAAGAAAAAVSVAAPGRASAPPPPPPVYCVCRQPYDVNRFMIECDICKDWFHGSCVGVEEHHAVDIDLYHCPNCAVLHGSSLMKKRRNWHRHDYTEIDDGSKPVQAGTRTFIKELRSRVFPSADEIIIKMHGSQLTQRYLEKHGFDVPIMVPKLDDLGLRLPSPTFSVMDVERYVGGDKVIDVIDVARQADSKMTLHNYVKYFMNPNRPKVLNVISLEFSDTKMSELVEVPDIAKKLSWVENYWPDDSVFPKPFVQKYCLMGVQDSYTDFHIDFGGTSVWYHVLWGEKIFYLIKPTDENLARYESWSSSVTQSEVFFGDKVDKCYKCVVKQGHTLFVPTGWIHAVLTSQDCMAFGGNFLHNLNIGMQLRCYEMEKRLKTPDLFKFPFFEAICWFVAKNLLETLKELREDGFQPQTYLVQGVKALHTALKLWMKKELVSEHAFEIPDNVRPGHLIKELSKVIRAIEEENGKPVKSQGI”, which “soluble on expression in E. coli” value is on record?
Answer: Its value is “soluble”.

Question: With “MGTRNVRPGDRISAAIVAITDDSVFVATGSKVDGVIDRRELEEADGSLPYAVGDRVDLYVTAVNGQEIRLSKGLSGQGGAAVLEEARDSGVPVEGRVTGTCKGGYNVDVLRKRAFCPGSQIDLHQLEDAESVVGQTFQFLVTRVEQHGRNIVVSRRALLERERDAALATFLEGVKEGDVLEGTVTRLAPFGAFVEIAPGVDGMVLEHHHHHH” as the sequence, how does the “soluble on expression in E. coli” value read?
Answer: Its value is “soluble”.

Question: For “MSLSGTDIHTSDYYFLFEEKFRGSRELVKARLRRYIPYFKGCRRVLDIGCGRGEFLELCKEEGIESIGVDINEDMIKFCEGKFNVVKSDAIEYLKSLPDKYLDGVMISHFVEHLDPERLFELLSLCYSKMKYSSYIVIESPNPTSLYSLINFYIDPTHKKPVHPETLKFILEYLGFRDVKIEFFEECEELTKLAKIDSNTVSEEVIRVINENIEKLNRILFGPQDYAIIAKKEGHHHHHH”, which “soluble on expression in E. coli” value is on record?
Answer: Its value is “soluble”.

Question: With “MNYFGKLQIRFSKSFLLLLIVSSLTACVDLTGARNTYIKKEKQPAISDVPNKKSKAQNMSSKKGEVHTMLGGLGIFSKGMYTLRDKVSEKYHITAHSTMWYNAGAVSRYIIDHYYQEKDHKPIILVGHSLGANEQIKVARNLNAAGVPVALLVTVDAVSQTIVPPNVKQALNVYKPGFVPMFSGLKLRAVDPQLTKIDNINVDSIKGIKVNHFTIDKDEILQAMIMDKVDKVLVDGNKKGA” as the sequence, how does the “soluble on expression in E. coli” value read?
Answer: The value was “not soluble”.

Question: With “MSLSITVLADIHLDERYIETGSQEVFCRENQDRPEAKYSLPGCDSSESLVDAALASLQKEGPYNVMVVLGDIGPHSSESPEMTQRAIKAIADKLRRLFINKPPEQEMIILPVIGNNDVFPTYAVPTEDGDPQLLFVADQFKDLMTTEGYRQFQRRGYYSVPLSKHRVTFLVINANYYSVRHRELGEDPADQFKWVENQMIEAKAKGYRVILISHIPFGVNVYDESEALHSQYTDRIRSILRRYASTVLACLYGHYHSAYPLVLSAGEEPLVPMFICPSIAPSNYNNPGYYVFHISPLHEVDYDHYALNIEAANMQHREMHNSTELASFDCLYRFSQRYRPWLGLRALPTAQNIAHLYEHMLNDDFVWYQVRAATTSMLSERRLDFLQMAVDKAFMDAYNLSNEGHHHHHH” as the sequence, how does the “soluble on expression in E. coli” value read?
Answer: Its value is “soluble”.

Question: Which “soluble on expression in E. coli” value does the source give for “MKPTKARLRNHVITLKNSVEKEIRAKKTKAIRAHIESEWLKIDPEFEKLHRYFSSLRIRQNVKNELVDLLEENSLEIWSFYRDTDARDFETYKKGFLEKLKYNSIKGLAKVEAVYDQEIQEVRETYNAIIANVERVPAKQGVAYLEELGINVDVFKEEEAQLPMIAVDKSKLRLPSETADSK” here?
Answer: The value was “not soluble”.

Question: Which “soluble on expression in E. coli” value does the source give for “MAFNDCFSLNYPGNPCPGDLIEVFRPGYQHWALYLGDGYVINIAPVDGIPASFTSAKSVFSSKALVKMQLLKDVVGNDTYRINNKYDETYPPLPVEEIIKRSEFVIGQEVAYNLLVNNCEHFVTLLRYGEGVSEQANRAISTVEFVTAAVGVFSFLGLFPKGQRAKYYLEHHHHHH” here?
Answer: The value was “soluble”.

Question: Which “soluble on expression in E. coli” value does the source give for “MANTLIVGAGWLGTPLAQALLVEGHDVVITRRSQARLDERPSTIANAALLDLNDENAAQKLDEIIQSNHIERIVGAFPPGFRRGSGREYAQQWSTLVKAAKQHAIEKLVMISSTTVYPNLPTDMKEESASLALVQTHPHFSDNAKIMLEAEQSVIDSGINYAILRCSGLFGPDRHPARFAMRLKQVSRKAPANMLHQSDAVAVAQFALDHLSNQIINVTTPHTVSKAEFYQAAITKSGAEISLPPVTEDADKRILADKLVSLGYQFRFNSTLDAL” here?
Answer: Its value is “not soluble”.

Question: With “MAHHHHHHMNDSISSPIKATCRDMALKSSLHSFTFSLKDFDIAGFLGDGAHGSVFLACERRTNFICVLKCISKSHLVKSTQEALLRKEIELQAHLKHPHIACMYTWFHTSSHVFFVMEYCSNGDLFTYLNENGPFCEKKVAEMLFEIIWAIRTCHDKRIAHLDLKPENVLVNHEEKCKLADFGLSAHIGSKHKKKGISHYRGTHDYWSPEQCARHQKKKQNFGEFDQKTDIWTLGILAFELKFGRPPFGSTNEERENVIMNRIQDYHWSQLFCEKVKQDLIDKLSPEFKDFLNLCLDKNPKKRPTAESLIQHPFIFIHNKNRSCIKSYATQPRGKQGPKLSHKGFNEQDGSFLTPIWFHNK” as the sequence, how does the “soluble on expression in E. coli” value read?
Answer: Its value is “soluble”.
